Biological target: KSS-1::Strep (C. tropicalis)
Test: SEC-MALS

Substance: SKR-1 (untagged) (natural protein)
- stoichiometry N: 1

From paper doi:10.1101/2024.09.16.613340
